Measurements: the DeepSol protein solubility set

Test: soluble on expression in E. coli; label from the status in PepcDB or PDB records

Sequence	soluble on expression in E. coli
MGSDKIHHHHHHMSLYLDDTLSRIVELDLKDTRIVPFLAGEPGIGKTSFIYGIGERAGYKVFSISVNTLADKGDLTGARTLQDPADGKWKQMFFPHATFVEANDYALANPNETVVILLDEINRTDSDVTSASMTISTERRVGTTDLAPNVRLAVTGNLTGNVTHLDSASLTRFSLYEVKPSAETFMNIMGGRLNKYIRTVLTKYPEYIFMKPTTATALITTGDDDDDHTTNAKQMMDFNAVLGSDQDMVQFTAPRTIEGLSVWLNNADDDFLRLLLQEKVDGLARSMSLLQATLESHTGDTAFTAEVLSEMTNDLLSSASQAPSGPIKPFVYDRLAAAPSNTVLEQEVHTLSLNDRADVLLFALHDTVNNAAPSIIAHLASEGVLDELPKDRISKIVSLGPVPTANYHALTRQDTTLTRNLGPAVLGFLES	not soluble
GMATLGANASLYSEQHRITYYECDRTGRATLTTLIDIAVLASEDQSDALGLTTEMVQSHGVGWVVTQYAIDITRMPRQDEVVTIAVRGSAYNPYFAYREFWIRDADGQQLAYITSIWVMMSQTTRRIVKILPELVAPYQSEVVKRIPRLPRPISFEATDTTITKPYHVRFFDIDPNRHVNNAHYFDWLVDTLPATFLLQHDLVHVDVRYENEVKYGQTVTAHANILPSEVADQVTTSHLIEVDDEKCCEVTIQWRTLPEPIQ	soluble
MDYTIIDAHAHLWLRQDTVVDGFPIRTLENGRSLFMGEIRQMVPPFMIDGVNSAEVFLSNMDYAQVSAAVITQEFIDGIQNDYLMEVVSRYPDRFFVCGMCEFRKPGYLEQAKELIGKGFKAIKIPAQRLLLKEGRVMLNCPEMMQMFRWMEERGVILSVDLAEGAIQVLEMEEIIQECPRLKIAVGHFGMVTLPDWKEQIKLARHPNVMIESGGITWLFNDEFYPFKGAIKAIREAAELVGMEKLMWGSDYPRTITAITYKMSYDFVVKSPELSEAEKTLFLGGNARKFYGFAELPELPYIKNMSE	not soluble
MGSDKIHHHHHHMFKDEKTPDEYAEEARSDIAAGNYAEAIEKIDKAIDKEPRNPSLHLIRADALYRQGNYSSAIEELNFTEHMDKNNPELFSLKSICYGSMGDFKRSKEEADKAIKADQSYPFAYYNRAAALRGLGDVDGAEKDFRKYIEMQPSDPDPHYDLAEIYFEKKDYKKAMEEVKAVLRNDKSNEKAYDLKLQIHLATNDGEGYFKALLEAFKNTENFKYIGTLTDGLIGIGSYDTAEDILKQFIKVYEKEPYLYDLLARTYDQEGKAKEADETYNTLLRLNNSRESHIYWFDYLLDSGRYDDLLSEIEKSGFKDEEILEIEYIAQDASGKHEEALKTAGELVKMDQTPYSRSLYATQLRKLGKLEDALTYLGSGDQDSDEVQFEKFNILLEMGNHSLAMESLKNSITASDDDEERLGHLITGISSAISKADFNTVNNFLDGLKMPEEEENIAVYALKGIVSGIFESYSKGKDMLIGLDEDRDNVCDFASYLANLMQGKASEFLNKFIEENCKKPEE	not soluble
MSLIYSGKFRIGVQDEAALQMLHDPEKLGPCLPGVSSFERNDDGYSCKVRLDVSSMGSSYLSKISGKLAFSYLDSENRTIHVQGKGRIAGSSISFDLFISVNGGELIWKIDVNYGILIKMMGEEKIRDVTQANIDRSVKCLSSVLCQEGHHHHHH	soluble
MKPSLRIYRYPPPPSQRTPCALTIGNFDGVHLGHQAILARVRQEARARGLVPAVMTFEPHPREYFATLNRRPELAPTRISGLRDKLQALAAAGIEQVAVERFDARLAEMSANAFIEDLLVAGLQTRWLLVGEDFRYGHKRSGDIDLLREAGLAHGFEVCTLADITDRQGHRISSSEVRTALAVGDLDRAAQLLGQPFHISGHVIHGRKLGRELGFPTMNLRVAPRCATRSGIYVVRVLGLQDRPLPAVASLGVRPTVEDRGRVLLEAHLLDESLDAYGKLVRVEFLHKLRDEEKFADLPSLTAAIAQDAQNARAYFAVHGL	not soluble
MSLDSSKRQFLQQLGVLTAGASLVPLAEAKFPFSPERHEGSPRHRYAMLIDLRRCIGCQSCTVSCTIENQTPQGAFRTTVNQYQVQREGSQEVTNVLLPRLCNHCDNPPCVPVCPVQATFQREDGIVVVDNKRCVGCAYCVQACPYDARFINHETQTADKCTFCVHRLEAGLLPACVESCVGGARIIGDIKDPHSRIATMLHQHRDAIKVLKPENGTSPHVFYLGLDDAFVTPLMGRAQPALWQEGHHHHHH	not soluble
MAQILPIRFQEHLQLQNLGINPANIGFSTLTMESDKFICIREKVGEQAQVVIIDMNDPSNPIRRPISADSAIMNPASKVIALKAGKTLQIFNIEMKSKMKAHTMTDDVTFWKWISLNTVALVTDNAVYHWSMEGESQPVKMFDRHSSLAGCQIINYRTDAKQKWLLLTGISAQQNRVVGAMQLYSVDRKVSQPIEGHAASFAQFKMEGNAEESTLFCFAVRGQAGGKLHIIEVGTPPTGNQPFPKKAVDVFFPPEAQNDFPVAMQISEKHDVVFLITKYGYIHLYDLETGTCIYMNRISGETIFVTAPHEATAGIIGVNRKGQVLSVCVEEENIIPYITNVLQNPDLALRMAVRNNLAGAEEL	soluble
MYSKIEGSIITARFDKETDFFTDLVDLCNKYEVKSGTVLWAIGMLKEFQIGYWNGNDYEKETFRERLELVSLHGSIAENDPRFHIHAAGARGNHGIVGGHLFSAKVDPLVEIQIMKITGFSMSRELDNSDGLYKLVIKLEHHHHHH	not soluble
MDGGADLYKPGEPGAMKKPKSVRQERILTELNQAPSLRVAELARRLDVSTETIRRDLDEMTEQGLLNRTYGGAVRSLSTEPSVTERHTLFVGERERIAKAAVQILKGAQVLMIGSGSTTVHTARRIAVEMKNITVLTHSFGVATVLAINPTIKVVMLPGDYHATEGATVGAHAVSFLNSFYADFTILGASGLGPDGPSDALLECGAVYSAMVSRAARTIVVADHSKHDRLFPARYAPWRDIAHVVTDKAPGEDLTESLDSSGVKLTVCLEHHHHHH	soluble
MGSDKIHHHHHHMTFEKNEHKDIAVIGAGPVGMLAALNLAHKGYSVCLIGPPVDTDELRTTALMMPAIHMLQKLNIWNIVKSHAAALSFIRIIDITSRIIRAPTVNFSSAEIGEEAFGYNIPNVELNNALVASVAHTPNIKRFFSSAHFFHHQPNHIHVTLADGGVVQASLIVAADGRDSRTREAADISVKKWNYPQTALVLNFSHDLSHQNTSTEFHTESGPFTQVPLPGHRSSLVWVVNPSRAEELLRLESKVIAKVIEEQMQSMLGKLTLETPIQAWPLSGLISQRFAANRTILVGEAAHVFPPIGAQGLNLGFRDIQTLIDILPNKISDFNSKKIVAHYNKCRKPDILIRSGSVHMFNSALLSNMLPVHIIRSFGLGLLRNCSPLRNLFTREGIYPGYGFKKIMQTFPIKSHKQESSIFFSVLVKDRDSEMISKSSLF	not soluble
MVTLSLPNMEGRREQLIAQVESILASAADGRVQKTKETQSVDFKEEAGRRNGPQIEPGKPENPEAADKLADEVACMANTPGGGALIVGIEDKTGRIIGTELDIDWLRQGIFTRIDVAPDVVAKRVLGQRVLAIYVAAAAEPIEDTSDRLRWRVGDSCRPVDRAEWWEYQRAQSGFDPMAQVTTATLGDARPAALALARKWDPAFAELTDEELLRGIGALDAEGFLSQAGKLLFTSLDRTAIELSIFDVHGGQVLNRVVPEPEKSCLEQLDYLEQALNVVNKNNTVVEGFVHKPVPEIPRLAVREAMLNAMIHRDWNRSEPIDVRWIELDSTLIVRSPGGFPAAITSENVLSNRAARYPALADLYRALGLVDKQGVGVDRMYQAMIALGHRPPTIEEIAGPFVETTLVGGRPVLPVLELVSSIVPEARQDDYRIAIVLYLLFQRPFITIDVVARGLQSGKEAARNALEAARQTTVAGAPLIIAHDGVWLLGNACREILRKVEPSPFSPVRYLSTDQAELTNAAMLWLSEVGDLATSDLMAMCGVSRGTAKACVDGLVDEERVVAVGGGRSRRYRLVELEHHHHHH	soluble
MGSDKIHHHHHHMAYLEVLRYLYHKRPMGKVKPGLERISMLLSKLGNPHLEYKTIHIGGTNGKGSVANMVSNILVSQGYRVGSYYSPHLSTFRERIRLNEEYISEEDVVKIYETMEPILNELDKEEIFSPSFFEVVTAMAFLYFAEKNVDIAVLEVGLGGRLDATNVVFPLCSTIVTVDRDHEKTLGYTIEQIAWEKSGIIKERVPLVTGERKREALKVMEDVARKKSSRMYVIDKDFSVKVKSLKLHENRFDYCGENTFEDLVLTMNGPHQIENAGVALKTLEATGLPLSEKAIREGLKNAKNLGRFEILEKNGKMYILDGAHNPHGAESLVRSLKLYFNGEPLSLVIGILDDKNREDILRKYTGIFERVIVTRVPSPRMKDMNSLVDMAKKFFKNVEVIEDPLEAIESTERATVVTGSLFLVGYVREFLTTGKINEEWKL	soluble
QLTPTFYDNSCPNVSNIVRDTIVNELRSDPRIAASILRLHFHDCFVNGCDASILLDNTTSFRTEKDAFGNANSARGFPVIDRMKAAVESACPRTVSCADLLTIAAQQSVTLAGGPSWRVPLGRRDSLQAFLDLANANLPAPFFTLPQLKDSFRNVGLNRSSDLVALSGGHTFGKNQCRFIMDRLYNFSNTGLPDPTLNTTYLQTLRGLCPLNGNLSALVDFDLRTPTIFDNKYYVNLEEQKGLIQSDQELFSSPNATDTIPLVRSFANSTQTFFNAFVEAMDRMGNITPLTGTQGQIRLNCRVVNSNSLLHDMVEVVDFVSSM	soluble
MGSDKIHHHHHHASCNKFDDLNTNPDAATKVTAPMLATKLILNITQQGSAKNFVYHSMLSKQIAWSENASDEQYNLFGRTDFDGYTILTNCQKMVDAANEGDKDSYAALAKFMKAYKLFYKSLEVGDIPYSDALKGEEGVQKPKYDTQKEVMRQVLEDLEEAYTLFSSGSDFDGDPIFGGDTENWKKTVVAFELKVLTHLCKKDTDADLKVKERFARLVSSGSLMTSNADNFQLVYSNKAGQLYPFYYTQNKHSDYLMMSSVIIDNLKKFNDYRMFYYASPAKAQTDKGIKDSEWDAYLSIDPSDSYSNISVLYGKGEFCLANLRYTRVPEGEPLMRLSYAEQNFILAEGAVRGWISEDASTYYKKGIEASMNFIADNTPDKEEYTHGRTITQEYIQEYLAQPVIQLSGDKEKDLEMILLQRYLASFLQHPYDAYYDYRRTGYPVLPINPSTNLNTEKNKIPTRWMYPEAEFSYNPDNANEAVQRQYNGSDDVNKLMWILQ	not soluble
MGSDKIHHHHHHMHILIYSYNYHPEPIGIAPLMTELAEGLVNRGHEVRVITGMPNYPEREIYDGYRGQWYVTEQKNGVTIQRSYIRIKSKPNLLDRLLLELSFIFTSLPQAFRGERPDVMILTVPPLLGILPATIFGWLYNCPIVLNVQDILPEAAVRIGLLKNKWMIRTLAALEKFAYRTAHTISVIADGFRENLVNKGVPVNKIVCIPNWVNVNFIHPLPKQNNSWISSHQLDGKFIVLYSGNIALTQGLETVIEAAVCLRHIKEIVFVIVGESRALQRLQEYCLLHGADNVLLLPLQPREKLPEMLAAADVGLIVQKRNIISFNMPSKIPLLLASGRPIVGSVPATGTAARAIKLSGGGIIVEPESPDAMAAAVHDLYANPTFCTRLGNAGRQFAEENYSLEQALDRYEWLFYHILANRKSNVGILPKLDSKESVVDA	not soluble
GSHMAPGFTISFVNKTIIVTGGNRGIGLAFTRAVAAAGANVAVIYRSAADAVEVTEKVGKEFGVKTKAYQCDVSNTDIVTKTIQQIDADLGPISGLIANAGVSVVKPATELTHEDFAFVYDVNVFGVFNTCRAVAKLWLQKQQKGSIVVTSSMSSQIINQSSLNGSLTQVFYNSSKAACSNLVKGLAAEWASAGIRVNALSPGYVNTDQTAHMDKKIRDHQASNIPLNRFAQPEEMTGQAILLLSDHATYMTGGEYFIDGGQLIW	soluble
YSGLHLCESHLCRAVTKRVRRRIREDGLVSDDATVEDPETWVIGLSGGKDSVVLTQILHDTFAEDPRIELVALSIHEGIEGYRDASLEACEELTDDLGIEHVTVSYAEEFGVQMDDVVEDDPEGMAACAYCGVFRRDLLSKYAEELDADKLLTGHNLDDEAETALMNFLEGDISQIAKHFEASLGPFDSSADAPTEQTREAQDHHIPRAKPLRDIPEKEVALYARFEDLPAHITEC	not soluble
